From the supplement of paper PMC7877785
± gives the uncertainty stated by the source.

Assay: self-splicing fitness, log relative to wild type (ln ratio); higher = more splicing; Tetrahymena group I intron in knt gene, E. coli kanamycin selection, DiMSum; sequences stand for … in CUCUCU…GGAGGGAAAAGUUAUCAGGCAUGCACCUGGUAGCUAGUCUUUAAACCAAUAGAUUGCAUCGGUUUAAAAGGCAAGACCGUCAAAUUGCGGGAAAGGGGUCAACAGCCGUUCAGUACCAAGUCUCAGGGGAAACUUUGAGAUGGCCUUGCAAAGGGUAUGGUAAUAAGCUGACGGACAUGGUCCUAACCACGCAGCCAAGUCCUAAGUCAACAGAUCUUCUGUUGAUAUGGAUGCAGUUCACAGACUAAAUGUCGGUCGGGGAAGAUGUAUUCUUCUCAUAAGAUAUAGUCGGACCUCUCCUUAAUGGGAGCUAGCGGAUGAAGUGAUGCAACACUGGAGCCGCUGGGAACUAAUUUGUAUGCGAAAGUAUAUUGAUUAGUUUUGGAGUACUCGUGGUCG
Method in brief: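 Colonies from six replicate transformations of E. coli BL21(DE3) were pooled and amplicon-sequenced on an Illumina HiSeq 2500. The library placed an intron with all eight P1ex-region nucleotides randomised inside the knt kanamycin-resistance gene on pET-22b(+), and cells grew overnight at 37°C or 30°C on LB agar with or without 25 μg/mL kanamycin (plus 100 μg/mL carbenicillin, 50 μM IPTG, 0.2% rhamnose). Fitness is the DiMSum error-weighted combination of wild-type-normalised replicate fold changes, kanamycin versus none.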

GCGAAGCAAUAUUACGUACG
self-splicing fitness (ln) (30 °C): -2.46 ± 0.37 | self-splicing fitness (ln) (37 °C): -2.24 ± 0.34

UUAGAGCAAUAUUACGGGAG
self-splicing fitness (ln) (30 °C): -2.32 ± 0.15 | self-splicing fitness (ln) (37 °C): -1.32 ± 0.18

UAGCAGCAAUAUUACGGACC
self-splicing fitness (ln) (30 °C): -1.74 ± 0.18 | self-splicing fitness (ln) (37 °C): -1.67 ± 0.29

ACGGAGCAAUAUUACGGGUG
self-splicing fitness (ln) (30 °C): -3.61 ± 0.18 | self-splicing fitness (ln) (37 °C): -3.18 ± 0.22

UCCCAGCAAUAUUACGAUAA
self-splicing fitness (ln) (30 °C): -2.32 ± 0.12 | self-splicing fitness (ln) (37 °C): -1.85 ± 0.14

AUUCAGCAAUAUUACGAGUC
self-splicing fitness (ln) (30 °C): -3.54 ± 0.26 | self-splicing fitness (ln) (37 °C): -2.13 ± 0.43

GUACAGCAAUAUUACGACUC
self-splicing fitness (ln) (30 °C): -0.243 ± 0.06 | self-splicing fitness (ln) (37 °C): 0.473 ± 0.068

GUCGAGCAAUAUUACGAUUU
self-splicing fitness (ln) (30 °C): -0.559 ± 0.2 | self-splicing fitness (ln) (37 °C): -0.273 ± 0.19

CUUCAGCAAUAUUACGUUGG
self-splicing fitness (ln) (30 °C): -3.67 ± 0.23 | self-splicing fitness (ln) (37 °C): -4.08 ± 0.46

AUUAAGCAAUAUUACGUAUC
self-splicing fitness (ln) (30 °C): -3.93 ± 0.25 | self-splicing fitness (ln) (37 °C): -2.31 ± 0.24

GCAGAGCAAUAUUACGUCAC
self-splicing fitness (ln) (30 °C): -3.67 ± 0.34 | self-splicing fitness (ln) (37 °C): -2.48 ± 0.32

GAGAAGCAAUAUUACGACGU
self-splicing fitness (ln) (30 °C): -0.944 ± 0.22 | self-splicing fitness (ln) (37 °C): 0.108 ± 0.19

CGUCAGCAAUAUUACGUUCC
self-splicing fitness (ln) (30 °C): -2.43 ± 0.16 | self-splicing fitness (ln) (37 °C): -1.18 ± 0.23

UGAUAGCAAUAUUACGAUAA
self-splicing fitness (ln) (30 °C): -2.12 ± 0.16 | self-splicing fitness (ln) (37 °C): -0.841 ± 0.17

GUAAAGCAAUAUUACGACAG
self-splicing fitness (ln) (30 °C): -2.12 ± 0.17 | self-splicing fitness (ln) (37 °C): -2.22 ± 0.25

CAUCAGCAAUAUUACGUUAA
self-splicing fitness (ln) (30 °C): -2.79 ± 0.16 | self-splicing fitness (ln) (37 °C): -1.85 ± 0.17

CGAAAGCAAUAUUACGCCGG
self-splicing fitness (ln) (30 °C): -0.615 ± 0.14 | self-splicing fitness (ln) (37 °C): 0.34 ± 0.17

UGUCAGCAAUAUUACGUGCU
self-splicing fitness (ln) (30 °C): -3.51 ± 0.25 | self-splicing fitness (ln) (37 °C): -2.23 ± 0.24

AGCUAGCAAUAUUACGCAAU
self-splicing fitness (ln) (30 °C): -1.79 ± 0.19 | self-splicing fitness (ln) (37 °C): -1.77 ± 0.18

GCCCAGCAAUAUUACGACCU
self-splicing fitness (ln) (30 °C): -1.07 ± 0.12 | self-splicing fitness (ln) (37 °C): -0.407 ± 0.15

GUUUAGCAAUAUUACGAUCG
self-splicing fitness (ln) (30 °C): -1.61 ± 0.13 | self-splicing fitness (ln) (37 °C): -0.512 ± 0.19

ACACAGCAAUAUUACGCGAC
self-splicing fitness (ln) (30 °C): -2.72 ± 0.098 | self-splicing fitness (ln) (37 °C): -2.15 ± 0.11

UUAUAGCAAUAUUACGAUUC
self-splicing fitness (ln) (30 °C): -2.51 ± 0.27 | self-splicing fitness (ln) (37 °C): -1.17 ± 0.31

GAGUAGCAAUAUUACGCCCG
self-splicing fitness (ln) (30 °C): -0.892 ± 0.21 | self-splicing fitness (ln) (37 °C): -1.03 ± 0.31

ACAGAGCAAUAUUACGUAUC
self-splicing fitness (ln) (30 °C): -4.32 ± 0.29 | self-splicing fitness (ln) (37 °C): -1.46 ± 0.14

UCGAAGCAAUAUUACGGUCG
self-splicing fitness (ln) (30 °C): -0.668 ± 0.079 | self-splicing fitness (ln) (37 °C): 0.0856 ± 0.11

AGAGAGCAAUAUUACGUCAA
self-splicing fitness (ln) (30 °C): -2.29 ± 0.5

GCCGAGCAAUAUUACGGGCA
self-splicing fitness (ln) (30 °C): -2.24 ± 0.25 | self-splicing fitness (ln) (37 °C): -0.776 ± 0.17

CAUAAGCAAUAUUACGCACA
self-splicing fitness (ln) (30 °C): -2.05 ± 0.12 | self-splicing fitness (ln) (37 °C): -0.312 ± 0.11

ACCGAGCAAUAUUACGUCUC
self-splicing fitness (ln) (30 °C): -3.22 ± 0.32 | self-splicing fitness (ln) (37 °C): -2.77 ± 0.48

CUGCAGCAAUAUUACGGGCA
self-splicing fitness (ln) (30 °C): -3.01 ± 0.17 | self-splicing fitness (ln) (37 °C): -1.06 ± 0.14

AAUCAGCAAUAUUACGUGGU
self-splicing fitness (ln) (30 °C): -1.65 ± 0.088 | self-splicing fitness (ln) (37 °C): -0.981 ± 0.11

AUAGAGCAAUAUUACGACGG
self-splicing fitness (ln) (30 °C): -2.52 ± 0.18 | self-splicing fitness (ln) (37 °C): -0.742 ± 0.26

GGAAAGCAAUAUUACGGGCU
self-splicing fitness (ln) (30 °C): -1.29 ± 0.12 | self-splicing fitness (ln) (37 °C): -0.815 ± 0.18

UGUUAGCAAUAUUACGUGUU
self-splicing fitness (ln) (30 °C): -3.3 ± 0.29 | self-splicing fitness (ln) (37 °C): -3.27 ± 0.47

GUUCAGCAAUAUUACGCAUU
self-splicing fitness (ln) (30 °C): -0.22 ± 0.06 | self-splicing fitness (ln) (37 °C): 0.414 ± 0.078

UACUAGCAAUAUUACGAACG
self-splicing fitness (ln) (30 °C): -0.328 ± 0.15 | self-splicing fitness (ln) (37 °C): -0.12 ± 0.18

ACAUAGCAAUAUUACGGCAC
self-splicing fitness (ln) (30 °C): -1.56 ± 0.11 | self-splicing fitness (ln) (37 °C): -1.2 ± 0.15

CAGAAGCAAUAUUACGUGGA
self-splicing fitness (ln) (30 °C): -2.71 ± 0.18 | self-splicing fitness (ln) (37 °C): -3.1 ± 0.2

GGAGAGCAAUAUUACGGUCA
self-splicing fitness (ln) (30 °C): -1.14 ± 0.2 | self-splicing fitness (ln) (37 °C): -2.11 ± 0.36

CUAUAGCAAUAUUACGAGGG
self-splicing fitness (ln) (30 °C): -3.08 ± 0.21 | self-splicing fitness (ln) (37 °C): -2.41 ± 0.27

UAUGAGCAAUAUUACGCAAU
self-splicing fitness (ln) (30 °C): -3.54 ± 0.25 | self-splicing fitness (ln) (37 °C): -2.32 ± 0.18
